Legend:
[1] = molecular target: human CD123 on cells (human) (UniProt P26951); test: cell-based or functional assay
[2] = molecular target: human CD33 on cells (human) (UniProt P20138); test: cell-based or functional assay
Sequence of human CD33 on cells (human) (P20138 18-364): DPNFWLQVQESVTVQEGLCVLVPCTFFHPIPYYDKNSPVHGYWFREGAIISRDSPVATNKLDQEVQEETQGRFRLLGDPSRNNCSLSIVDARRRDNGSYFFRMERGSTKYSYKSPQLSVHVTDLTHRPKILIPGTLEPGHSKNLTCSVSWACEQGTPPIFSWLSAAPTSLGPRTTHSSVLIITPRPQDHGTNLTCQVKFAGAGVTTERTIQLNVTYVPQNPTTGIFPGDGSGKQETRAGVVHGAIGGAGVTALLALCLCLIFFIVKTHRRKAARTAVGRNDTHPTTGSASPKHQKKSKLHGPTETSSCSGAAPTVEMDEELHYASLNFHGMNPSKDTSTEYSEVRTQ

Sequence of human CD123 on cells (human) (P26951 19-378 limits assumed): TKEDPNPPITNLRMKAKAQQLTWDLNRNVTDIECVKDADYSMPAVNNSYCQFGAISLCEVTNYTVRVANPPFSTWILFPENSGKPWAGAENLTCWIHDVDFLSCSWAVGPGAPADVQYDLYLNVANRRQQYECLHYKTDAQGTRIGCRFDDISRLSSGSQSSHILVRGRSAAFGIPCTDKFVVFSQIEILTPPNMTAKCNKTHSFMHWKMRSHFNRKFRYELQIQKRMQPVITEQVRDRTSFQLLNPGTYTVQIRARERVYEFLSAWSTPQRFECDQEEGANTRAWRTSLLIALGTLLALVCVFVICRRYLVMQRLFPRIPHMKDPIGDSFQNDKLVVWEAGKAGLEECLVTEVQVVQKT

For “CD33/CD3 BiTE AMG 330 (bispecific antibody)”, the % Lysis, human T cell mediated KG-1a cell killing [1] was 15%, the EC50 (M), flow cytometry based human T cell mediated KG-1a cell killing, E:T 10:1 [1] was 8.7e-12 M and the % Lysis, human T cell mediated U-937 cell killing [2] was 55%. The EC50 (M), flow cytometry based human T cell mediated U-937 cell killing, E:T 10:1 [2] was 1.1e-11 M.

“CD123/CD3 DART MGD006 (bispecific antibody)” showed a % Lysis, human T cell mediated KG-1a cell killing [1] of 58%, an EC50 (M), flow cytometry based human T cell mediated KG-1a cell killing, E:T 10:1 [1] of 3e-12 M and a % Lysis, human T cell mediated U-937 cell killing [2] of 13%. The EC50 (M), flow cytometry based human T cell mediated U-937 cell killing, E:T 10:1 [2] was 8.9e-13 M.
